Assay [1] has as its target T1, GST-fused MUC1 recombinant protein, containing a 107-aa MUC1 sequence, containing 5.3 repeats (UniProt P08515 1-218 = GST; P15941 126-232).
T1 construct: Biotinylated for the selections; also called Recombinant MUC1 protein; MUC1 tumor antigen
Description: Surface Plasmon Resonance (Biacore), soluble scFv.

Assay [2] concerns the target T2, Human CEA protein, purified from colon carcinoma and liver metastases (human, UniProt P06731 35-685, limits assumed).
T2 construct: Bought; Biotinylated for the selections; also called carcino-embryonic antigen
T2 sequence (looked up): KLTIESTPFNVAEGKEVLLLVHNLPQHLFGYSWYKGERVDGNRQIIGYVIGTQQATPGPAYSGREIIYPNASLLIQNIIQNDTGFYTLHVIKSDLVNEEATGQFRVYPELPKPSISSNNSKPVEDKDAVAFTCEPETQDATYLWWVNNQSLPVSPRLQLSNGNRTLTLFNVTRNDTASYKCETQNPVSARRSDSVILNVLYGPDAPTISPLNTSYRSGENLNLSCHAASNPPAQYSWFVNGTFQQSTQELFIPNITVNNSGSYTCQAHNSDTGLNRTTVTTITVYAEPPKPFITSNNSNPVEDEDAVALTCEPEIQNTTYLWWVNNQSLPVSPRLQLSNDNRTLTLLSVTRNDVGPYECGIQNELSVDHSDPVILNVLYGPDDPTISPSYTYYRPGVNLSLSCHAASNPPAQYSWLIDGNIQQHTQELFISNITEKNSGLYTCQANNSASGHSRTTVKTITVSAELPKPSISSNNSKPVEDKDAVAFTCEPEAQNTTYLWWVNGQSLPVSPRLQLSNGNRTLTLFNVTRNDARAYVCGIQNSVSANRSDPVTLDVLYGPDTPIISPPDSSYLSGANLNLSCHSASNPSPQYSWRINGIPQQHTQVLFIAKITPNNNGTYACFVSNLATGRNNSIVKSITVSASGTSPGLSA
In words: Surface Plasmon Resonance (Biacore), soluble scFv. (In general: In SPR one partner is held on a chip, and binding of the other changes the refractive index at the surface.)

Broadly, the Kd is a measure of binding affinity in units of concentration.

Substitutions are numbered along the chain they refer to.

B1: MB5/C′1 scFv antibody, soluble form (scFv)
scFv: RTMEEVQLQESGAEVKKPGASVKVSCKASGYTFTASYMHWVRQAPGQGLEWMGWFNPNSGGTNYAQKFQGRVTMTGDTSTSTGYMELSRLTSDDAAVYYCARDRASAMGVWGQGTLVTVSSGGGGSGGGGSGGGGSQSALTQPASVSGSPGQSITISCTGTSSDVGGYNYVSWYQQHPGKAPKLMIYDVSHRPSGISNRFSGSKSGNTASLTISRLQAEDEADYYCSSYTSSNTFIFGTGTQLTVLGAA
notes: domain: first two amino acids of the mature AP protein; cloned in pKM16 and produced in soluble form; also called MBB5/C′1; not shown: FLAG/His-tail at the carboxyl-terminus (pKM16)
On to B1, for which the Kd in assay [1] amounted to 9.46 nM.

B2: CB37/3B scFv antibody, soluble form (scFv)
scFv: RTMEEVQLVQSGGGLIQPGGSLRLSCVASEFNVRSNYMSWVRQAPGKGLEWVSVMYDGGSTYYADSVKGRFTISRDNSKNTVYLQMNSLRAEDTAVYYCARGGLGLPTIAPWEIWGQGTMVTVSSGGGGSGGGGSGGGGSSYVLTQPPSVSVAPGKTATITCAGNNIGSNSVYWYQQKPGLAPVLVVYDDRDRPSGIHERFSGSKSGNTATLTISRVEAGDEADYSCQVWDPSSDHLYVFGTGTQLTVLGAA
notes: domain: first two amino acids of the mature AP protein; not shown: FLAG/His-tail at the carboxyl-terminus (pKM16)
In assay [2], B2 registered a Kd of 3.66 nM.

B3: CB37/9C scFv antibody, soluble form (scFv)
scFv: B2 scFv with P111S, I197L, H198P, E199G
notes: domain: first two amino acids of the mature AP protein; cloned in pKM16 and produced in soluble form; not shown: FLAG/His-tail at the carboxyl-terminus (pKM16)
Consider B3, for which the dissociation constant Kd in assay [2] was 1.42 nM.

B4: MB5/C′3 scFv antibody, soluble form (scFv)
scFv: RTMEQVQLVQSGAEVKKPGASVKVSCKASGYTFTASYMHWVRQAPGQGLEWMGWFNPNSGGTNYAQKFQGRVTMTGDTSTSTGYMELSRLTSDDAAVYYCARDRASAMGVWGQGTLVTVSSGGGGSGGGGSGGGGSQSALTQPASVSGSPGQSITISCTGTSSDVGGYNYVSWYQQHPGKAPKLMIYDVTNRPSGVSSRFSGSKSGNTASLTISGLQTEDEADYYCNSFTSSNTYVFGTGTQLTVLGAA
notes: as for B3
With B4, in assay [1], the Kd amounted to 23.1 nM.

Source of the values: patent publication USRE45968 (SIGMA TAU INDUSTRIE FARMACEUTICHE RIUNITE S PA, dated 2016).
